Here are results for six molecules from patent US20240343823A1 (Ablynx, published 2024).

The term EC50 denotes the midpoint of the concentration-response curve. A higher EC50 goes with a need for much substance. One may read the koff as the rate constant with which the complex falls apart. The Kd is the free concentration of one partner at which half of the binding sites on the other are occupied at equilibrium, for simple one-to-one binding. By IC50 is commonly meant the point on the concentration scale where inhibition reaches its midpoint.

Where two headings read alike, the source gives them in different places.

The target of assay [1] is T1, human GPC3 on tumor cell lines (HepG2, Huh-7, NCI-H661, MKN-45, NCI-H23, BxPC-3, NCI-H292) (human, UniProt P51654 25-554). As to the kind of experiment: cell-based or functional assay.
The target in assay [2] is T1, human GPC3 on tumor cell lines (HepG2, …). Description: flow cytometry on HepG2 cells. (In general: Flow cytometry measures light scatter and fluorescence of single cells or particles in a stream.)
For assay [3] the target is unchanged. As to the kind of experiment: flow cytometry on Huh-7 cells.
The target is the same in assay [4]. Description: flow cytometry on HepG2 and Huh-7 cells. Here is the method:
(§1) Periplasmic extracts were screened for human and cyno GPC3 binding in flow cytometry using CHO Flp-In cells (Invitrogen cat nr. K6010) expressing either human GPC3 (accession number P51654; Q25-R358, S359-H580) or cyno GPC3 (accession number P51654; Q3-R358; S359-H559), respectively. In brief, 1×10⁵ cells were incubated in 1:5 diluted periplasmic extracts for 30 min at 4° C., and then washed 3 times. As a control, the parental CHO Flp-In cell line (Invitrogen cat nr. K6010) was included. […] Samples were washed and resuspended in FACS Buffer (D-PBS (Gibco) with 10% FBS (Sigma) and 0.05% sodium azide (Merck)) supplemented with 5 nM TOPRO3 (Molecular Probes, cat nr T3605). Cell suspensions were then analyzed on a FACS Array. Gating was set on live, intact cells using forward/side scatter and TOPRO3 channel fluorescence parameters.
Variants were evaluated for binding to HepG2, Huh-7 and CHO Flip-In cyno-GPC3 cells by flow cytometry, as described in Example 1.

Assay [5] deals with T2, cyno GPC3 expressed on CHO Flp-In cells (cynomolgus).
T2 construct: range 3-559; On cells; also called cyGPC3 CHO; CHO-cGPC3
As to the kind of experiment: flow cytometry on CHO Flp-In cyno GPC3 cells.

Assay [6] has as its target T2, cyno GPC3 expressed on CHO Flp-In cells. As to the kind of experiment: flow cytometry on CHO Flp-In cyno GPC3 cells. This is another data set of the same source.
Assay [7] has as its target T3, cyno Glypican-3 delta-GPI-HIS, in-house produced (cynomolgus).
T3 construct: range 3-559; also called cyno GPC3; cyGPC3
Description: SPR ProteOn XPR36, periplasmic extract over coated cyno GPC3. The method, then:
(§2) Off-rates of ISVDs were determined on a ProteOn XPR36 instrument (Bio-Rad Laboratories, Inc.). ProteOn GLC Sensor Chips were coated with cyno Glypican-3 AGPI-HIS (in-house produced; accession number P51654; Q3-R358; S359-H559) and human GPC3 (R&D Systems, cat nr. 2119-GP). Periplasmic extracts were diluted 1:10 in ProteOn PBS Tween buffer (PBS, pH 7.4, 0.005% Tween 20 (167-2720, BioRad)). Experiments were carried out at 25° C. Data obtained was double referenced by reference lane subtraction as well as subtraction of a blank buffer injection. Processed curves were used for off-rate analysis based on the Langmuir dissociation (off-rate analysis) model.

Assay [8] concerns the target T4, recombinant human Glypican-3 (R&D Systems, cat nr. 2119-GP) (human, UniProt P51654 25-559).
T4 construct: Bought protein; also called human GPC3; hGPC3
Description: SPR ProteOn XPR36, periplasmic extract over coated human GPC3. Here is the method: as §2

In assay [9] the target is T2, cyno GPC3 expressed on CHO Flp-In cells. As to the kind of experiment: flow cytometry, periplasmic extract on CHO Flp-In cyno GPC3 against parental CHO. Here is the method:
as §1

The target of assay [10] is T5, human GPC3 expressed on CHO Flp-In cells (human, UniProt P51654 25-554).
T5 construct: On cells; Q25-R358, S359-H580; also called hGPC3 CHO; CHO huGPC3
As to the kind of experiment: flow cytometry, periplasmic extract on CHO Flp-In human GPC3 against parental CHO. The method, then: as §1

Assay [11] addresses T6, cyno TCRab, in house produced (extracellular domains fused to a zipper peptide) (cynomolgus).
T6 construct: Numbering of the four differences is not explained; not shown: variable domains, if any; any residues beyond C131 of the beta chain
T6 alpha: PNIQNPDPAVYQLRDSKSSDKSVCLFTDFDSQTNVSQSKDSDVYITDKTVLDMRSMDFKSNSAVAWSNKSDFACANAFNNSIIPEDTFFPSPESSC
T6 beta: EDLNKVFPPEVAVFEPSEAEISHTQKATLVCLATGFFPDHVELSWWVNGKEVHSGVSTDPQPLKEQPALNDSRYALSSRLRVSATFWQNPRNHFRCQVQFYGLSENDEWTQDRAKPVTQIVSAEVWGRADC
Description: SPR ProteOn XPR36, TCRab immobilized by amine coupling, 1:1 model. Here is the method: (§3) Recombinant TCR proteins were immobilized on a GLC Sensor Chip (Biorad) via amine coupling, using EDC and NHS chemistry (running buffer: HBS-EP+, pH 7.4). Purified ISVDs were injected for 2 minutes (flow rate 45 μL/min) at different concentrations (between 0.2 nM and 200 nM) and dissociation was followed for 900 s. Regeneration was performed by injecting 3 M MgCl₂ for 3 minutes (flow rate 90 μL/min). Data was double referenced by subtracting a reference ligand lane and a blank buffer injection. Processed sensorgrams were analyzed based on the 1:1 interaction model (Langmuir binding model) using ProteOn Manager 3.1.0 (Version 3.1.0.6) software.

For assay [12], the target named is T7, TCRab on primary cyno T cells (cynomolgus).
T7 construct: whole, on cells; also called Primary cy T cells; cyno TCR
Description: competition flow cytometry on cyno T cells, competitor T017000623 at EC30 (5E-08 M). Here is the method:
(§4) T cells (human T cells obtained as described in Example 3 and cyno T cells purchased from LPT laboratory, Germany) were thawed and counted on the day of the assay and diluted to a concentration of 1E+06 cells/mL, before adding 75 μL to the wells of a V-bottom 96-well plate (Greiner, cat no 651180). Cells were washed once with cold FACS buffer, before adding 25 μL Nb and 25 μL competitor to the wells. […] Cells were resuspended and plates were incubated at 4° C. for 90 minutes, after which plates were washed twice in cold FACS buffer. Cells were resuspended in 50 μl 1/1000 diluted Monoclonal ANTI-FLAG® M2 (Sigma Aldrich, cat no F1804) in FACS buffer and incubated at 4° C. for 30 minutes. Plates were washed twice in cold FACS buffer. […] Plates were washed twice in cold FACS buffer. Cells were resuspended in 55 μL 1/1000 diluted Propidium Iodide (Sigma-Aldrich, cat no P4170) in FACS buffer before acquiring data on the MACSQuant X (Miltenyi biotec).

In assay [13] the target is T8, TCRab on primary human T cells (human, UniProt P01848 1-140; P01850 1-176).
T8 construct: whole, on cells; T cells isolated from buffy coats; also called Primary hu T cells; human TCR
T8 TCR alpha (looked up): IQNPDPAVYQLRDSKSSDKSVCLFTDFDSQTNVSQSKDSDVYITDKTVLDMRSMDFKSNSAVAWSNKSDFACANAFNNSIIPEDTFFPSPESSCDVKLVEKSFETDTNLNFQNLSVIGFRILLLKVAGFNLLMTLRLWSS
T8 TCR beta (looked up): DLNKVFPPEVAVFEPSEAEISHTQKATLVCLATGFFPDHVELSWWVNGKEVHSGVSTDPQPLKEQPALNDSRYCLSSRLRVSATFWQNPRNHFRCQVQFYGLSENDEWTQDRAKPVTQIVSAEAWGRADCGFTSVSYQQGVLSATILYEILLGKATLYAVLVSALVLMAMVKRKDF
As to the kind of experiment: competition flow cytometry on primary human T cells, competitor T017000624 at EC30 (2E-08 M). The method, then:
as §4

The target in assay [14] is T9, human serum albumin (Sigma cat no A8763) (human, UniProt P02768 25-609).
T9 construct: also called HSA
Description: SPR ProteOn XPR36, serum albumin immobilized by amine coupling, 1:1 model. Here is the method: as §3, with “Serum albumin proteins” for “Recombinant TCR proteins”, “(between 0.24” for “(between 0.2”, “and 500” for “and 200”, “injecting 10 mM Glycine-HCl (pH 1.5)” for “injecting 3 M MgCl₂”, “for 47 seconds” for “for 3 minutes”, “rate 100” for “rate 90”

In assay [15] the target is T10, cyno serum albumin (in house produced from animal tissue) (cynomolgus).
T10 construct: also called cynomolgus serum albumin
T10 sequence (A2V9Z4 25-608): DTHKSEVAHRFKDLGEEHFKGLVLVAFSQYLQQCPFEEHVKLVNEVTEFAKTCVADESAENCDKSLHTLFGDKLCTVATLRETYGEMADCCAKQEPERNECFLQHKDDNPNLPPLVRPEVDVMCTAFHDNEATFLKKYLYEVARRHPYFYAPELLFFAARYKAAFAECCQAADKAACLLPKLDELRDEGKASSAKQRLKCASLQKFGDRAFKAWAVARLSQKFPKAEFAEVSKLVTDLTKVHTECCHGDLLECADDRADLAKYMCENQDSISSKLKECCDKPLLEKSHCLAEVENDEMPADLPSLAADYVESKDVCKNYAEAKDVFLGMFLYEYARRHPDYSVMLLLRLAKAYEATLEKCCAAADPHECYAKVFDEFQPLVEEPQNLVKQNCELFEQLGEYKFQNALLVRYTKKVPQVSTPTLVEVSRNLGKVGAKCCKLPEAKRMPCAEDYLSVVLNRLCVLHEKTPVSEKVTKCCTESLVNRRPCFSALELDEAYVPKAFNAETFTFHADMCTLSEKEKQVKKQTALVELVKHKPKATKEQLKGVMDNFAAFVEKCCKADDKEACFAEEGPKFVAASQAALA
The assay is described as above. The method, then: as §3, with “Serum albumin proteins” for “Recombinant TCR proteins”, “(between 0.24” for “(between 0.2”, “and 500” for “and 200”, “injecting 10 mM Glycine-HCl (pH 1.5)” for “injecting 3 M MgCl₂”, “for 47 seconds” for “for 3 minutes”, “rate 100” for “rate 90”

In assay [16] the target is mouse serum albumin (DivBioScience cat no IMSA) (mouse, UniProt P07724 25-608). The description is as above. Here is the method: as §3, with “Serum albumin proteins” for “Recombinant TCR proteins”, “(between 0.24” for “(between 0.2”, “and 500” for “and 200”, “injecting 10 mM Glycine-HCl (pH 1.5)” for “injecting 3 M MgCl₂”, “for 47 seconds” for “for 3 minutes”, “rate 100” for “rate 90”
Chain of mouse serum albumin (DivBioScience cat no IMSA) (P07724 25-608 limits assumed): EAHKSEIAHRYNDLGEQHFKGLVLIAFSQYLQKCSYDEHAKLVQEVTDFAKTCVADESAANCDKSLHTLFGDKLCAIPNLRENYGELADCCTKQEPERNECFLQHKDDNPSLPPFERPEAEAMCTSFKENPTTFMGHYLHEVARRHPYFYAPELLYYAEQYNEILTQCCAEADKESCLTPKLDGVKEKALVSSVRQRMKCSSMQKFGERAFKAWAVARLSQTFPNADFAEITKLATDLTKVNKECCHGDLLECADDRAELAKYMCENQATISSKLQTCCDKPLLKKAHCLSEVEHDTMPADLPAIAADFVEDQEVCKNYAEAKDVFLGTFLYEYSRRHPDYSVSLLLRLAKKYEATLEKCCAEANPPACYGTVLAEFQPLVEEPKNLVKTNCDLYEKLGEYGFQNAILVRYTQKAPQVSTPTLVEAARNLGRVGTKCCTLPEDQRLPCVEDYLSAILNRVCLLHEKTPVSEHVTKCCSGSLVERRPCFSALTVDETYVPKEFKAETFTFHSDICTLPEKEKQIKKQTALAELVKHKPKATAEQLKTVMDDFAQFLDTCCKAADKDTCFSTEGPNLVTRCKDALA

Assay [17] deals with T1, human GPC3 on tumor cell lines (HepG2, …). Description: flow cytometry on HepG2 cells. The source holds these as a separate data set.
Assay [18] has the same target. As to the kind of experiment: flow cytometry on Huh-7 cells. This is another data set of the same source.
Assay [19] deals with T2, cyno GPC3 expressed on CHO Flp-In cells. As to the kind of experiment: flow cytometry on CHO Flp-In cyno GPC3 cells. This is another data set of the same source.

B1: A022600031 (bispecific antibody)
chain: DVQLVESGGGLVQPGGSLRLSCVASGDVHKINFLGWYRQAPGKEREKVAHISIGDQTDYADSAKGRFTISRDESKNMVYLQMNSLKPEDTAVYFCRAFSRIYPYDYWGQGTLVTVSSGGGGSGGGGSGGGGSGGGGSGGGGSGGGGSGGGGSEVQLVESGGGLVQAGGSLRLSCVASGSIFRSVFSSSTMEWYRQPPGKKRELVARIAPGDGTNYGALYADSVKGRFTISRDDAKKTVDLQMNSLKPEDTGVYFCASGVAWGQGTLVTVSSGGGGSGGGGSGGGGSGGGGSGGGGSGGGGSGGGGSEVQLVESGGGVVQPGGSLRLSCAASGLTFSSYAMGWFRQAPGKERERVVSISRGGGYTYYADSVKGRFTISRDNSENTVYLQMNSLRPEDTALYYCAAARYWATGSEYEFDYWGQGTLVTVSS
On to B1, for which the “IC50 (M), Incucyte human TDC HepG2-Nuclight green assay” value in [1] came out at 1.5e-08 M.

B2: A022600314 (VHH)
VHH: EVQLVESGGGVVQPGGSLRLSCAASGSIFRSVFSSSTMEWYRQAPGKKRELVARIAPGEGTYYGALYADSVKGRFTISRDNAKNTVYLQMNSLRPEDTALYYCASGVAWGQGTLVTVSS
notes: also called A0226000314
As for B2, the EC50 turned out to be 16 nM in assay [2], 9.3 nM in assay [3] and 12 nM in [6]. Also, the “fold decrease in binding potency against parental A0226015A08” value in assay [4] and in assay [5] was below 2 fold in each case.

B3: A0226015A08 (VHH)
VHH: EVQLVESGGGLVQAGGSLRLSCVASGSIFRSVFSSSTMEWYRQPPGKKRELVARIAPGDGTNYGALYADSVKGRFTISRDDAKKTVDLQMNSLKPEDTGVYFCASGVAWGQGTLVTVSS
notes: Parental ISVD; also called A02260015A08; anti-GPC3 ISVD
Turning to B3, the concentration giving a half-maximal response (EC50) in [2] came out at 7.5 nM; in [3] it was 6.6 nM; in assay [6], 7.8 nM. The figures for the koff in assay [7] and in [8] were 0.0004 s⁻¹ and 0.00033 s⁻¹, respectively. Moreover, the “Ratio MFI cyGPC3 CHO/CHO” value in [9] amounted to 13.7. In [10], the “Ratio MFI hGPC3 CHO/CHO” value amounted to 58.2.

B4: T017000698 (bispecific antibody)
chain: DVQLVESGGGVVQPGGSLRLSCVASGYVHKINFYGWYRQAPGKEREKVAHISIGDQTDYADSAKGRFTISRDESKNTVYLQMNSLRPEDTAAYYCRALSRIWPYDYWGQGTLVTVSSGGGGSGGGSEVQLVESGGGVVQPGGSLRLSCAASGFTFRSFGMSWVRQAPGKGPEWVSSISGSGSDTLYADSVKGRFTISRDNSKNTLYLQMNSLRPEDTALYYCTIGGSLSRSSQGTLVTVSSA
notes: Bivalent ISVD construct: anti-TCR and anti-albumin; also called TCE01-9GS-ALB23002-A
Regarding B4, the Kd in [11] is 11 nM. The IC50 amounted to 250 nM in assay [12] and 190 nM in assay [13].

B5: ALB223 (VHH)
VHH: EVQLVESGGGVVQPGGSLRLSCAASGFTFRSFGMSWVRQAPGKGPEWVSSISGSGSDTLYADSVKGRFTISRDNSKNTLYLQMNSLRPEDTALYYCTIGGSLSRSSQGTLVTVSS
notes: also called ALB23002-A
Turning to B5, the values for the Kd in assay [14], in assay [15] and in assay [16] were 0.88 nM, 0.57 nM and 5.3 nM, respectively.

B6: A0226018C08 (VHH)
VHH: EVQLVESGGGLVQPGGSLRLSCVASGFTFSSFAMTWVRRPPGKGLEWVATITNGGVTSYRDSVKGRFTISRDNAKNTLYLEMTSLNPEDTAVYICANARRTGPRAPTDIGSYRGQGTLVTVSS
notes: Parental ISVD; also called A02260018C08; anti-GPC3 ISVD
As for B6, the figures for the concentration for a half-maximal effect (EC50) in assay [17], in assay [18] and in assay [19] were 0.915 nM, 0.696 nM and 0.49 nM, respectively. Besides, the koff in [7] turned out to be 0.0011 s⁻¹; in assay [8], 0.00097 s⁻¹. Further, in assay [9], the “Ratio MFI cyGPC3 CHO/CHO” value is 19.9. Further, in assay [10], the “Ratio MFI hGPC3 CHO/CHO” value was found to be 159.
